The values that follow come from patent US5962294A, “Compositions and methods for the identification and synthesis of sialyltransferases” (The Regents of the University of California, priority 1993, dated 1999).

Data set [1] deals with [14C]NeuAc labeled α1-acid glycoprotein produced from the asialo-derivative using ST3N enzyme.
Data set [2] addresses [14C]NeuAc labeled α1-acid glycoprotein produced from the asialo-derivative using ST6N enzyme.
Data set [3] addresses [14C]NeuAc labeled α1-acid glycoprotein produced from the asialo-derivative using ST3 enzyme.
The target in data set [4] is ovine submaxillary asialo-mucin (GalNAc-Thr/Ser) (ovine).
Data set [5] concerns the target antifreeze glycoprotein (Galβ1,3GalNAc-Thr).
Data set [6] has as its target asialofetuin (Galβ1,3GalNAc-Thr/Ser and Galβ1,4GlcNAc-R).
Data set [7] concerns the target asialo-α1-acid glycoprotein (Galβ1,4GlcNAc-R).
For data set [8] the target is unchanged. The source holds these as a separate data set.
For data set [9], the system named is acceptor substrate antifreeze glycoprotein (AFGP). As to the kind of experiment: Sialyltransferase activity of purified porcine liver α2,3-0 sialyltransferase. The class given is biochemical. The note with it: after third CDP-hexanolamine agarose column. The source says: FIG. 4 Purification of the α2,3-0 sialyltransferase on CDP-hexanolamine agarose (column III, CDP elution). […] In columns A and B elution of enzyme activity correlated predominantly with 48 kDa and a 45 kDa protein species, respectively (see inset, SDS-PAGE). These two species, form A and form B of the α2,3 sialyltransferase, had specific activities of 8-10 units/mg protein. The 48 kDA and 45 kDA species were blotted to a PVDF membrane and analyzed by NH2 -terminal sequencing.
The enzyme was purified from a porcine liver Triton X-100 extract by affinity chromatography on three successive columns of CDP-hexanolamineagarose. The elution profile from the first and third purification steps are shown in FIG. 3 and FIG. 4, respectively. […] These two peaks were separated by combining the indicated fractions into pools A and B, these two pools were subsequently found to be enriched in two different molecular weight forms of the α2,3-0 sialyltransferase.
The membranes were extracted three times with buffer (Conradt, H. S. et al., in Sialic Acids 1988 Proceedings of the Japanese-German Symposium on Sialic Acids (Schauer and Yamakawa, eds.) pp. 104-105, Verlag Wissenschaft and Bildung, Kiel [1988]) and the extract was passed over a 1.5 l CDP-hexanolamine agarose column (column 1) (16 umol/ml). After washing the column with 3 L buffer B, the column was eluted with a linear gradient of 0.05 to 1.0 M KCL (2.5 l×2.5 l) in buffer B. Fractions containing α2,3 sialyltransferase were combined into two pools A and B, representing the main part and the trailing end of the peak, respectively (see FIG. 3). The pools were dialysed against buffer B and subjected to another round of affinity chromatography on CDP-hexanolamine agarose (columns IIA and IIB). A 150 ml column was used for pool A and a 30 ml column was used for pool B; two preparations from column I (from total of 4 kg liver) were loaded on the same column in step II. […]

The test system is the same in data set [10]. The note with it: Rearick et al. 1979; cited from earlier work.
In data set [11] the target is T1, (Sus scrofa, UniProt Q02745).
T1 sequence (Q02745 28-343 limits assumed): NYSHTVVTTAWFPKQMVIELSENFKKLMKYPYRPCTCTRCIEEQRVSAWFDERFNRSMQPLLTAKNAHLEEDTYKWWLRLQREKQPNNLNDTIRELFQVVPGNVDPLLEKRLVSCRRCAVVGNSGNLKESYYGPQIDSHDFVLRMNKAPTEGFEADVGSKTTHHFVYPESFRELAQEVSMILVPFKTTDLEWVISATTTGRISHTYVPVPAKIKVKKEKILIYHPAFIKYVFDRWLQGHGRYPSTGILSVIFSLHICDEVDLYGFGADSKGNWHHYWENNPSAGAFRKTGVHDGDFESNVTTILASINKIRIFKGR
As to the kind of experiment: Sialyltransferase activity in media of COS-1 cells transfected with sp-ST. The note with it: 48 hours post-transfection, media concentrated.

On to “sialidase from Newcastle disease virus (Oxford Glycosystems) (enzyme)”, for which the release of [14C]NeuAc from labeled glycoprotein (% of total 14C NeuAc released) in [1] is 82; in data set [2], 0; in data set [3], 83.
Take “soluble protein A/ST3 fusion (expression plasmid AZ3), human ST3 sialyltransferase (from UniProt P02976) (enzyme)”: the Relative rate (%) of sialic acid transfer, acceptor 0.2 mM in data set [4] is 3.8%; in data set [5] it was 50%; in [6], 92%; in data set [7] it was 51%.
“soluble protein A/human ST3N fusion (expression plasmid A3NHP), human Galβ1,3(4)GlcNAc α2,3-sialyltransferase (from UniProt P02976) (enzyme)” came in with a Relative activity (%), acceptor 0.2 mM in data set [8] of 14%.

B1: Form B: 45 kDa molecular weight form of the porcine liver α2,3 sialyltransferase (protein)
chain: NYSHTVVTTAWFPKQMVIELSENFKKLMKYPYRPCTCTRCIEEQRVSAWFDERFNRSMQPLLTAKNAHLEEDTYKWWLRLQREKQPNNLNDTIRELFQVVPGNVDPLLEKRLVSCRRCAVVGNSGNLKESYYGPQIDSHDFVLRMNKAPTEGFEADVGSKTTHHFVYPESFRELAQEVSMILVPFKTTDLEWVISATTTGTISHTYVPVPAKIKVKKEKILIYHPAFIKYVFDRWLQGHGRYPSTGILSVIFSLHICDEVDLYGFGADSKGNWHHYWENNPSAGAFRKTGVHDGDFESNVTTILASINKIRIFKGR
For B1, in data set [9], the specific activity is listed as 8-10 units/mg protein. Besides, the “catalytic activity (in words)” value in [10] is “fully catalytically active”.

B2: sp-ST: fusion of insulin signal sequence, 9 linker amino acids and the catalytic domain of α2,3-0 sialyltransferase (protein)
chain: NYSHTVVTTAWFPKQMVIELSENFKKLMKYPYRPCTCTRCIEEQRVSAWFDERFNRSMQPLLTAKNAHLEEDTYKWWLRLQREKQPNNLNDTIRELFQVVPGNVDPLLEKRLVSCRRCAVVGNSGNLKESYYGPQIDSHDFVLRMNKAPTEGFEADVGSKTTHHFVYPESFRELAQEVSMILVPFKTTDLEWVISATTTGTISHTYVPVPAKIKVKKEKILIYHPAFIKYVFDRWLQGHGRYPSTGILSVIFSLHICDEVDLYGFGADSKGNWHHYWENNPSAGAFRKTGVHDGDFESNVTTILASINKIRIFKGR
On to B2, for which the “sialyltransferase activity in media” value in [11] is reported as “contained milliunits/ml of the sialyltransferase”.
